Assay results as given in article doi:10.1101/2025.06.12.659319, “A bipartite, mutation-tolerant NLS regulates interaction of ΔNp63α with importin alpha, nuclear transport and transcriptional activity” (bioRxiv, 2025).
Where no end group is shown, it is not given here. The star is where a group is joined. FITC = O=C1OC2(c3ccc(O)cc3Oc3cc(O)ccc32)c2ccc(NC(=S)*)cc21

Biological target: mouse IMPα2ΔIBB (importin α2 lacking the IMPβ1 binding domain) (mouse, UniProt P52293 70-529)
Assay: crystal structure; IMPα2ΔIBB crystals (hanging drop, 650 mM sodium citrate, 100 mM HEPES pH 6.5, 10 mM DTT, 23°C) soaked with the peptide; 2.20 Å
Conditions: both partners purified

binding result: binds
B1: FITC-ΔNp63α NLSbip peptide (residues 278-302) (peptide)
peptide: {FITC}-DGTKRPFRQNTHGIQMTSIKKRRSP
notes: ΔNp63α (p63), human, residues 278-302, bipartite NLS; numbers count on: the ΔNp63α isoform (Q9H3D4-2); also called p63 NLS; source: synthetic peptide (GenScript)
